Values of other authors as cited in paper PMC8461181.

Target: GnIH (Coturnix japonica) (UniProt Q9DGD4)
Experiment: Scatchard analysis

Kd: 0.752 nM
Substance: GPR147 (from UniProt Q9GZQ6)
